Experimental data: patent US20210388110A1 (published 2021)
Residue numbers refer to the chain shown, from its start. One block for each binder: values may come before it.

Target: T1, soluble human CD3ε chain (human, UniProt P07766 23-126, limits assumed)
T1 construct: also called human CD3 epsilon chain
Test: SPR (Biacore), soluble human CD3ε chain

T1 sequence (P07766 23-126 limits assumed): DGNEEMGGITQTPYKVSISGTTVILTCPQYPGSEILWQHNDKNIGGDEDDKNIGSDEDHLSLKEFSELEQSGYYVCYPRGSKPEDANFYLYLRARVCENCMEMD

Kd: 0.0715 µM
B1: TR01H067-E22Hh/none-Hi-Kn010G3/L0000-k0 (antibody, human IgG1, kappa, L234A L235A, N297A)
heavy: QVQLVESGGGLVQPGRSLRLSCAASGFTFSNAWMHWVRQAPGKGLEWVAQIKDKSQNYATYYAESVKGRFTISRDDSKNSLYLQMNSLKTEDTAVYYCRYVHYAASYGVDAWGQGTTVTVSSASTKGPSVFPLAPSSKSTSGGTAALGCLVKDYFPEPVTVSWNSGALTSGVHTFPAVLQSSGLYSLSSVVTVPSSSLGTQTYICNVNHKPSNTKVDKKVEPKSCDKTHTCPPCPAPEAAGGPSVFLFPPKPKDTLMISRTPEVTCVVVDVSHEDPEVKFNWYVDGVEVHNAKTKPREEQYASTYRVVSVLTVLHQDWLNGKEYKCKVSNKALPAPIEKTISKAKGQPREPQVYTLPPSRCELTKNQVSLSCAVKGFYPSDIAVEWESNGQPENNYKTTPPVLDSDGSFFLVSKLTVDKSRWQQGNVFSCSVMHEALHNHYTQKSLSLSPDYKDDDDK
chain: EPKSSDKTHTCPPCPAPELLGGPSVFLFPPKPKDTLMISRTPEVTCVVVDVSHEDPEVKFNWYVDGVEVHNAKTKPREEQYNSTYRVVSVLTVLHQDWLNGKEYKCKVSNKALPAPIEKTISKAKGQPREPQVCTLPPSRDELTKNQVSLWCLVKGFYPSDIAVEWESNGQPENNYKTTPPVLDSDGSFFLYSKLTVDKSRWQQGNVFSCSVMHEALHNRYTQKSLSLSP
light: DIVMTQSPLSLPVTPGEPASISCRSSQSLVHSNRNTYLHWYQQKPGQAPRLLIYKVSNRFSGVPDRFSGSGSGTDFTLKISRVEAEDVGVYYCGQGTQVPYTFGQGTKLEIKRTVAAPSVFIFPPSDEQLKSGTASVVCLLNNFYPREAKVQWKVDNALQSGNSQESVTEQDSKDSTYSLSSTLTLSKADYEKHKVYACEVTHQGLSSPVTKSFNRGEC
notes: one-arm antibody (single Fab) with Fab-less hinge-Fc chain Hi-Kn010G3

Kd: 0.101 µM
B2: TR01H068-E22Hh/none-Hi-Kn010G3/L0000-k0 (antibody, human IgG1, kappa, L234A L235A, N297A)
heavy: B1 heavy with L11V, R16G
chain: B1 chain
light: B1 light
notes: as for B1

Kd: 0.108 µM
B3: TR01H024-E22Hh/none-Hi-Kn010G3/L0000-k0 (antibody, human IgG1, kappa, L234A L235A, N297A)
heavy: B1 heavy with R16G, D53G, D75A, L81I, A104S
chain: B1 chain
light: B1 light
notes: as for B1

Kd: 0.143 µM
B4: CE115HA124-E22Hh//-Hi-Kn010G3/L0000-k0 (antibody, human IgG1, kappa, L234A L235A, N297A)
heavy: B1 heavy with L11V, D53A, K54L, Q56N, A104G, S106Y
chain: B1 chain
light: B1 light
notes: one-arm antibody (single Fab) with Fab-less hinge-Fc chain Hi-Kn010G3; label '//-Hi-Kn010G3' read as none-Hi-Kn010G3

Kd: 0.0758 µM
B5: TR01H022-E22Hh/none-Hi-Kn010G3/L0000-k0 (antibody, human IgG1, kappa, L234A L235A, N297A)
heavy: B1 heavy with R16G, D53G, E64P, D75A, L81I, A104S, A111I
chain: B1 chain
light: B1 light
notes: as for B1

Kd: 0.0373 µM
B6: TR01H010-E22Hh/none-Hi-Kn010G3/L0000-k0 (antibody, human IgG1, kappa, L234A L235A, N297A)
heavy: B1 heavy with D53A, Q56N, D75A, L81I, A104S, S106Y, A111I
chain: B1 chain
light: B1 light
notes: as for B1

Kd: 0.1 µM
B7: TR01H040-E22Hh/none-Hi-Kn010G3/L0247-k0 (antibody, human IgG1, kappa, L234A L235A, N297A)
heavy: B1 heavy with D75A, L81I, A104S
chain: B1 chain
light: B1 light with L29P, L38I, H39Q, G94I
notes: as for B1

Kd: 0.0794 µM
B8: TR01H023-E22Hh/none-Hi-Kn010G3/L0000-k0 (antibody, human IgG1, kappa, L234A L235A, N297A)
heavy: B1 heavy with R16G, D53G, D75A, L81I, A104S, A111I
chain: B1 chain
light: B1 light
notes: as for B1

Kd: 0.0763 µM
B9: TR01H067-E22Hh/none-Hi-Kn010G3/L0222-k0 (antibody, human IgG1, kappa, L234A L235A, N297A)
heavy: B1 heavy
chain: B1 chain
light: B1 light with L29P, L38I, H39Q, G94Y
notes: as for B1

Kd: 0.0526 µM
B10: TR01H067-E22Hh/none-Hi-Kn010G3/TR01L018-k0 (antibody, human IgG1, kappa, L234A L235A, N297A)
heavy: B1 heavy
chain: B1 chain
light: B1 light with R24Q, S25A, Q27E, L29P, Q42L, A48S, R50Q
notes: as for B1

Kd: 0.111 µM
B11: TR01H040-E22Hh/none-Hi-Kn010G3/L0249-k0 (antibody, human IgG1, kappa, L234A L235A, N297A)
heavy: B1 heavy with D75A, L81I, A104S
chain: B1 chain
light: B1 light with S25P, L29P, L38I, H39Q, G94S
notes: as for B1

Kd: 0.0371 µM
B12: TR01H011-E22Hh/none-Hi-Kn010G3/L0000-k0 (antibody, human IgG1, kappa, L234A L235A, N297A)
heavy: B1 heavy with D53A, Q56N, D75A, L81I, A104G, A111I
chain: B1 chain
light: B1 light
notes: as for B1

Kd: 0.112 µM
B13: TR01H057-E22Hh/none-Hi-Kn010G3/L0000-k0 (antibody, human IgG1, kappa, L234A L235A, N297A)
heavy: B1 heavy with A104S
chain: B1 chain
light: B1 light
notes: as for B1

Kd: 0.0741 µM
B14: TR01H067-E22Hh/none-Hi-Kn010G3/L0215-k0 (antibody, human IgG1, kappa, L234A L235A, N297A)
heavy: B1 heavy
chain: B1 chain
light: B1 light with S28P, L29P, L38I
notes: as for B1

Kd: 0.0864 µM
B15: TR01H067-E22Hh/none-Hi-Kn010G3/TR01L015-k0 (antibody, human IgG1, kappa, L234A L235A, N297A)
heavy: B1 heavy
chain: B1 chain
light: B1 light with L29P, Q42L, A48S, R50Q
notes: as for B1

Kd: 0.101 µM
B16: TR01H040-E22Hh/none-Hi-Kn010G3/L0227-k0 (antibody, human IgG1, kappa, L234A L235A, N297A)
heavy: B1 heavy with D75A, L81I, A104S
chain: B1 chain
light: B1 light with L29P, L38I, G94L
notes: as for B1

Kd: 0.0714 µM
B17: TR01H015-E22Hh/none-Hi-Kn010G3/TR01L002-k0 (antibody, human IgG1, kappa, L234A L235A, N297A)
heavy: B1 heavy with D53G, Q56N, D75A, L81I, A104S, A111I
chain: B1 chain
light: B1 light with Q42L, A48S, R50Q
notes: as for B1

Kd: 0.0789 µM
B18: TR01H040-E22Hh/none-Hi-Kn010G3/L0248-k0 (antibody, human IgG1, kappa, L234A L235A, N297A)
heavy: B1 heavy with D75A, L81I, A104S
chain: B1 chain
light: B1 light with S25P, L29P, L38I, H39Q, G94Y
notes: as for B1

Kd: 0.135 µM
B19: TR01H004-E22Hh//-Hi-Kn010G3/L0000-k0 (antibody, human IgG1, kappa, L234A L235A, N297A)
heavy: B1 heavy with L11V, D53A, Q56N, Y100R, A104Y, A105Y, S106Y
chain: B1 chain
light: B1 light
notes: as for B4

Kd: 0.0734 µM
B20: TR01H015-E22Hh/none-Hi-Kn010G3/TR01L004-k0 (antibody, human IgG1, kappa, L234A L235A, N297A)
heavy: B1 heavy with D53G, Q56N, D75A, L81I, A104S, A111I
chain: B1 chain
light: B1 light with R24Q, S25A, Q27E, L109V, K112E
notes: as for B1

Kd: 0.0755 µM
B21: TR01H031-E22Hh/none-Hi-Kn010G3/L0000-k0 (antibody, human IgG1, kappa, L234A L235A, N297A)
heavy: B1 heavy with L11V, R16G, D53G, Q56N, D75A, L81I, A104S, A111I
chain: B1 chain
light: B1 light
notes: as for B1

Kd: 0.0823 µM
B22: TR01H053-E22Hh/none-Hi-Kn010G3/L0000-k0 (antibody, human IgG1, kappa, L234A L235A, N297A)
heavy: B1 heavy with D75A, A104S
chain: B1 chain
light: B1 light
notes: as for B1

Kd: 0.0732 µM
B23: TR01H056-E22Hh/none-Hi-Kn010G3/L0000-k0 (antibody, human IgG1, kappa, L234A L235A, N297A)
heavy: B1 heavy with A104S, A111I
chain: B1 chain
light: B1 light
notes: as for B1

Kd: 0.0718 µM
B24: TR01H067-E22Hh/none-Hi-Kn010G3/L0011-k0 (antibody, human IgG1, kappa, L234A L235A, N297A)
heavy: B1 heavy
chain: B1 chain
light: B1 light with S28P
notes: as for B1

Kd: 0.0779 µM
B25: TR01H054-E22Hh/none-Hi-Kn010G3/L0000-k0 (antibody, human IgG1, kappa, L234A L235A, N297A)
heavy: B1 heavy with D75A, A104S, A111Y
chain: B1 chain
light: B1 light
notes: as for B1

Kd: 0.0315 µM
B26: TR01H009-E22Hh/none-Hi-Kn010G3/L0000-k0 (antibody, human IgG1, kappa, L234A L235A, N297A)
heavy: B1 heavy with D53A, Q56N, E64P, D75A, L81I, A104G, S106Y, A111I
chain: B1 chain
light: B1 light
notes: as for B1

Kd: 0.0801 µM
B27: TR01H040-E22Hh/none-Hi-Kn010G3/L0226-k0 (antibody, human IgG1, kappa, L234A L235A, N297A)
heavy: B1 heavy with D75A, L81I, A104S
chain: B1 chain
light: B1 light with L29P, L38I, G94I
notes: as for B1

Kd: 0.132 µM
B28: TR01H067-E22Hh/none-Hi-Kn010G3/L0226-k0 (antibody, human IgG1, kappa, L234A L235A, N297A)
heavy: B1 heavy
chain: B1 chain
light: B1 light with L29P, L38I, G94I
notes: as for B1

Kd: 0.0911 µM
B29: TR01H034-E22Hh/none-Hi-Kn010G3/L0000-k0 (antibody, human IgG1, kappa, L234A L235A, N297A)
heavy: B1 heavy with D53G, D75A, L81I, A104S
chain: B1 chain
light: B1 light
notes: as for B1

Kd: 0.115 µM
B30: TR01H058-E22Hh/none-Hi-Kn010G3/L0000-k0 (antibody, human IgG1, kappa, L234A L235A, N297A)
heavy: B1 heavy with A104S, A111Y
chain: B1 chain
light: B1 light
notes: as for B1

Kd: 0.0805 µM
B31: TR01H021-E22Hh/none-Hi-Kn010G3/L0000-k0 (antibody, human IgG1, kappa, L234A L235A, N297A)
heavy: B1 heavy with D53G, Q56N, D75A, L81I, A104S
chain: B1 chain
light: B1 light
notes: as for B1

Kd: 0.0849 µM
B32: TR01H035-E22Hh/none-Hi-Kn010G3/L0000-k0 (antibody, human IgG1, kappa, L234A L235A, N297A)
heavy: B1 heavy with D53G, D75A, L81I, A104S, A111Y
chain: B1 chain
light: B1 light
notes: as for B1

Kd: 0.0682 µM
B33: TR01H040-E22Hh/none-Hi-Kn010G3/TR01L007-k0 (antibody, human IgG1, kappa, L234A L235A, N297A)
heavy: B1 heavy with D75A, L81I, A104S
chain: B1 chain
light: B1 light with R24Q, S25A, Q27E, Q42L, A48S, R50Q
notes: as for B1

Kd: 0.139 µM
B34: TR01H067-E22Hh/none-Hi-Kn010G3/L0248-k0 (antibody, human IgG1, kappa, L234A L235A, N297A)
heavy: B1 heavy
chain: B1 chain
light: B1 light with S25P, L29P, L38I, H39Q, G94Y
notes: as for B1

Kd: 0.0422 µM
B35: TR01H008-E22Hh/none-Hi-Kn010G3/L0000-k0 (antibody, human IgG1, kappa, L234A L235A, N297A)
heavy: B1 heavy with D53G, Q56N, D75A, L81I, A104G, S106Y, A111I
chain: B1 chain
light: B1 light
notes: as for B1

Kd: 0.0928 µM
B36: TR01H040-E22Hh/none-Hi-Kn010G3/L0246-k0 (antibody, human IgG1, kappa, L234A L235A, N297A)
heavy: B1 heavy with D75A, L81I, A104S
chain: B1 chain
light: B1 light with L29P, L38I, H39Q, G94S
notes: as for B1
